Among the data in PMC11417371, “ENL reads histone β-hydroxybutyrylation to modulate gene transcription” (Nucleic Acids Research, 2024) are Kd and fold enrichment over probe H3K9 values, retold here.

One assay concerns the target T1, AF9 (UniProt P42568 1-568).
T1 construct: AF9 (MLLT3), a YEATS domain-containing protein
T1 sequence (looked up): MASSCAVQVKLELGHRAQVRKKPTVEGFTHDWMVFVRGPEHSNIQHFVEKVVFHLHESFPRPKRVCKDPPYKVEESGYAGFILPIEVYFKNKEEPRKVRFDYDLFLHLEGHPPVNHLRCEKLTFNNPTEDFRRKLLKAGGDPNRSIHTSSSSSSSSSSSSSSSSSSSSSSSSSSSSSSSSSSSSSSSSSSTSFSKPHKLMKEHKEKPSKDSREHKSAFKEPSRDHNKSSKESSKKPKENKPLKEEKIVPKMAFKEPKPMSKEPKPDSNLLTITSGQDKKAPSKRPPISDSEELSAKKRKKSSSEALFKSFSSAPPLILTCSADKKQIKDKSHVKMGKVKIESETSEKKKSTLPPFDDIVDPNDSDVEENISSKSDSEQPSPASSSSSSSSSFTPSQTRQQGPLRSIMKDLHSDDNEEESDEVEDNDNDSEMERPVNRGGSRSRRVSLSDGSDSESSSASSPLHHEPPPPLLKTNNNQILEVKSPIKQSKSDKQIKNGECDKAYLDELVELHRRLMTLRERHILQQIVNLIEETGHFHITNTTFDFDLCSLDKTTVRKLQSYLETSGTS
The experiment in a line: ITC; MicroCal PEAQ ITC, 15°C; protein at 100 μM dropped into the 1000 μM peptide, 19 drops; one set of binding sites model. The note with it: both partners purified. (In ITC the heat of successive injections is recorded.)

In the next assay the target is T2, GAS41 (UniProt O95619 1-227).
T2 construct: GAS41 (YEATS4), a YEATS domain-containing protein
Described as above. To be noted: both partners purified.

Assay [1] addresses Probe H3K9bhb (Kbhb-installed histone H3 peptide on gold nanoparticles with photo-cross-linker-linked PEG). Kind of assay: affinity purification with mass spectrometry; photoaffinity enrichment with probes H3K9bhb and H3K9, read out by parallel reaction monitoring (PRM) mass spectrometry.

T2 sequence (O95619 whole entry, the tested form may be a part): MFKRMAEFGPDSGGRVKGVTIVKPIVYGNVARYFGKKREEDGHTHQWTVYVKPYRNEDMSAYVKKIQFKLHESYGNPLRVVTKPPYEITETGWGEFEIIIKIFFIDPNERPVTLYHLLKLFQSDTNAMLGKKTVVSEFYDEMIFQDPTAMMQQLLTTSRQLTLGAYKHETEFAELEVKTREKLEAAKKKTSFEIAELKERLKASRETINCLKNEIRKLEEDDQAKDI

B1: β-hydroxybutyryl histone H3 1-17 peptide (H3K9bhb) (peptide, UniProt P68431 2-18, looked up)
peptide: ARTKQTARKSTGGKAPR
modifications: β-hydroxybutyryl-lysine at K9
notes: histone H3, residues 1-17; The text calls the ITC peptides 'histone H3K14 (1–17) peptides', the legend 'H31-17 peptides'; also called H3K9bhb peptide; source: synthetic peptide (Beijing SciLight Biotechnology, HPLC purified)
A word on the Kd: it is the concentration at which binding is half-saturated. Lower therefore signals a tighter complex. With B1, the Kd in the assay with AF9 was determined as 11 µM; in the assay with GAS41, 6.7 µM.

B2: ENL (endogenous) (natural protein)
chain: MDNQCTVQVRLELGHRAQLRKKPTTEGFTHDWMVFVRGPEQCDIQHFVEKVVFWLHDSFPKPRRVCKEPPYKVEESGYAGFIMPIEVHFKNKEEPRKVCFTYDLFLNLEGNPPVNHLRCEKLTFNNPTTEFRYKLLRAGGVMVMPEGADTVSRPSPDYPMLPTIPLSAFSDPKKTKPSHGSKDANKESSKTSKPHKVTKEHRERPRKDSESKSSSKELEREQAKSSKDTSRKLGEGRLPKEEKAPPPKAAFKEPKMALKETKLESTSPKGGPPPPPPPPPRASSKRPATADSPKPSAKKQKKSSSKGSRSAPGTSPRTSSSSSFSDKKPAKDKSSTRGEKVKAESEPREAKKALEVEESNSEDEASFKSESAQSSPSNSSSSSDSSSDSDFEPSQNHSQGPLRSMVEDLQSEESDEDDSSSGEEAAGKTNPGRDSRLSFSDSESDNSADSSLPSREPPPPQKPPPPNSKVSGRRSPESCSKPEKILKKGTYDKAYTDELVELHRRLMALRERNVLQQIVNLIEETGHFNVTNTTFDFDLFSLDETTVRKLQSCLEAVAT
In assay [1], B2 came in with a fold enrichment over probe H3K9 of 3.9 fold.
